Source: US20090136506A1, “Conserved Membrane Activator of Calcineurin (CMAC), a Novel Therapeutic Protein and Target” (priority 2005, published 2009)

B1: cMAC BL7: shDNA construct in pLKO.1 lentiviral vector, target sequence ccgggtttccctattccaa (SEQ ID NO: 120) (nucleic acid)
sense: CCGGCCGGGTTTCCCTATTCCAATTCAAGAGATTGGAATAGGGAAACCCGGTTTTT
antisense: AATTAAAAACCGGGTTTCCCTATTCCAATCTCTTGAATTGGAATAGGGAAACCCGG
B2: cMAC BL4: shDNA construct in pLKO.1 lentiviral vector, target sequence ggttatctgttgcccaaga (SEQ ID NO: 111) (nucleic acid)
sense: CCGGGGTTATCTGTTGCCCAAGATTCAAGAGATCTTGGGCAACAGATAACCTTTTT
antisense: AATTAAAAAGGTTATCTGTTGCCCAAGATCTCTTGAATCTTGGGCAACAGATAACC
B3: cMAC BL3: shDNA construct in pLKO.1 lentiviral vector, target sequence catctttgttggcctacga (SEQ ID NO: 108) (nucleic acid)
sense: CCGGCATCTTTGTTGGCCTACGATTCAAGAGATCGTAGGCCAACAAAGATGTTTTT
antisense: AATTAAAAACATCTTTGTTGGCCTACGATCTCTTGAATCGTAGGCCAACAAAGATG
B4: CD29 shDNA construct: negative control shDNA construct targeting CD29, target sequence ggtagaaagtcgggacaaa (SEQ ID NO: 132) (nucleic acid)
sense: CCGGGGTAGAAAGTCGGGACAAATTCAAGAGATTTGTCCCGACTTTCTACCTTTTT
antisense: AATTAAAAAGGTAGAAAGTCGGGACAAATCTCTTGAATTTGTCCCGACTTTCTACC
B5: cMAC BL5: shDNA construct in pLKO.1 lentiviral vector, target sequence gatttaagcctccctaaga (SEQ ID NO: 114) (nucleic acid)
sense: CCGGGATTTAAGCCTCCCTAAGATTCAAGAGATCTTAGGGAGGCTTAAATCTTTTT
antisense: AATTAAAAAGATTTAAGCCTCCCTAAGATCTCTTGAATCTTAGGGAGGCTTAAATC
B6: cMAC MB4: shDNA construct in pLKO.1 lentiviral vector, target sequence ccttgggcuggcactcttatt (SEQ ID NO: 129) (nucleic acid)
sense: CCGGCCTTGGGCUGGCACTCTTATTCAAGAGATAAGAGTGCCAGCCCAAGGTTTTT
antisense: AATTAAAAACCTTGGGCTGGCACTCTTATCTCTTGAATAAGAGTGCCAGCCCAAGG
B7: cMAC BL9: shDNA construct in pLKO.1 lentiviral vector, target sequence caggaatgtcctccaacca (SEQ ID NO: 126) (nucleic acid)
sense: CCGGCAGGAATGTCCTCCAACCATTCAAGAGATGGTTGGAGGACATTCCTGTTTTT
antisense: AATTAAAAACAGGAATGTCCTCCAACCATCTCTTGAATGGTTGGAGGACATTCCTG
B8: cMAC BL2: shDNA construct in pLKO.1 lentiviral vector, target sequence gcctttgttagatctatca (SEQ ID NO: 105) (nucleic acid)
sense: CCGGGCCTTTGTTAGATCTATCATTCAAGAGATGATAGATCTAACAAAGGCTTTTT
antisense: AATTAAAAAGCCTTTGTTAGATCTATCATCTCTTGAATGATAGATCTAACAAAGGC
B9: cMAC BL8: shDNA construct in pLKO.1 lentiviral vector, target sequence gtcaggtgccacatgagaa (SEQ ID NO: 123) (nucleic acid)
sense: CCGGGTCAGGTGCCACATGAGAATTCAAGAGATTCTCATGTGGCACCTGACTTTTT
antisense: AATTAAAAAGTCAGGTGCCACATGAGAATCTCTTGAATTCTCATGTGGCACCTGAC
B10: cMAC BL6: shDNA construct in pLKO.1 lentiviral vector, target sequence actagaatgttgacctcga (SEQ ID NO: 117) (nucleic acid)
sense: CCGGACTAGAATGTTGACCTCGATTCAAGAGATCGAGGTCAACATTCTAGTTTTTT
antisense: AATTAAAAAACTAGAATGTTGACCTCGATCTCTTGAATCGAGGTCAACATTCTAGT

Key:
Assay type in all cases: cell-based
[1] = system: cMAC mediated translocation of TORC1-eGFP; test: TORC1-eGFP translocation in HeLa:TORC1-eGFP cells transduced with human cMAC; details: EGTA in the medium; reversed by excess calcium (data not shown)
NFAT-2 = NFAT-2 translocation in Jurkat cells; details: PMA alone
Description: (§1) Fixing and staining Jurkat cells, NFAT translocation assay: Following treatment Jurkat cells were attached to 96 well plates using the Becton Dickinson Cell-Tak cell adhesive. The suspension cells were centrifuged (800×G) for 5 min onto precoated plates (as per manufacturer's instruction). The attached cells were permeabilized in 3.7% formaldehyde, 0.5% Triton X100 and washed twice with wash buffer (0.5% Triton X100 in PBS) and blocked with 2% BSA, 0.1% Triton X100 in PBS. The cells were incubated in primary antibodies NFAT-1 (Cellomics K01-0011-1 diluted 1:100) and NFAT-2 (Affinity Bioreagents MA3-024 diluted 1:250) in blocking buffer for 1 hour at room temperature. Cells were washed twice with wash buffer and incubated with secondary goat anti-mouse IgG conjugated to Alexa Fluor 488 GαM (Cellomics K01-0011-1 reagents antibody diluted 1:2000, and Hoechst dye 1:2000) in blocking buffer. Cells were washed once with PBS and imaged. […]
(§2) The effect of cMAC on the nuclear translocation of the transcription factor NFAT and its dependence on calcineurin was also examined. […] While NFAT-1 and NFAT-2 were detected in the cytoplasm of control virus infected cells, both isoforms of NFAT were localized primarily in the nucleus in a large proportion of cMAC transduced cells. […]

NFAT-1 = NFAT-1 translocation in Jurkat cells; details: PMA alone
Description: as §1, §2

IL-2 [2] = test: Jurkat T-cell activation, IL-2 protein (ELISA); details: Jurkat cells, PMA alone
Description: (§3) Transduction and sensitization of Jurkat cells: Jurkat cells were maintained in RPMI 1640 (GIBCO 21870-076) 10% FC1 Fetal clone1 (Hyclone), 1% Pen/Strep, 1% Glutamax1, 0.1% beta mercaptoethanol. Prior to transduction the cells were switched to transduction media which contains: RPMI 1640 (above) fortified with 2.25 g glucose 1% antibiotic/antimycotic, 1% 1M Hepes (Gibco), 1% 100 mM sodium pyruvate, 10 ml 7.5% Sodium Bicarbonate 10% Fetal Clone serum 1. Cells were seeded 5×104 in transduction media combined with virus (volume in legend) and 4 ug/ml polybrene final concentration and centrifuged at ˜800×g for 3 hrs. For activation of ICOS and IL-2 expression experiments cells were transduced with 50 μl of retroviral supernatant (QL-GW-Final-Kan) and 48 hours post transduction the media was fortified with PMA (phorbol 12-myristate 13-acetate) 10 ng/ml and 24 hours after addition the cells or media were removed for ICOS or IL-2 measurements. […]
(§4) Analysis of ICOS surface marker and IL-2 protein expression: 1.5 uL of ICOS-PE (BD-Parmingen 557802) was combined with ˜1×10^6 Jurkat cells and incubated on ice for 30 min. Cells were centrifuged ˜500×g 5 min and washed 2×PBS and the mean channel flourescence determined using flow cytometry (BD FACSCaliber). IL-2 levels were measured using the QuantiGlo IL-2 Elisa kit (R&D Systems).
(§5) We assessed the role of TRPV6 and cMAC in a T-cell activation screen. […]

ICOS = test: Jurkat T-cell activation, ICOS surface marker expression; details: Jurkat cells, PMA alone
Description: as §3, §4, §5

IL-2 [3] = test: IL-2 production of TCR/CD28 activated Jurkat T-cells after viral shDNA transduction; details: TCR/CD28 activated 6 days post transduction; for Average IL-2 % inhibition: pLKO.1 shDNA, puromycin selected, IL-2 normalized to viable cells
Description: as §4
Jurkat cell activation for shDNA inhibition studies: To assess shDNA efficacy, Jurkat cells (15000) were transduced with 10 μL LKO virus as described and 24 hours post transduction the media was fortified with puromycin (see below). Six days post transduction half the cells were activated with antibodies targeting TCR and CD28 receptors bound to a 96 well plate surface and incubated overnight and the media was collected for IL-2 determination. The remaining cells were used to determine the fraction of viable cells in each well using the Cell Titer-Glo assay (see below).
The activation plates were prepared by coating goat anti-mouse IgG, Fcγ fragment specific antibody (Jackson ImmunoResearch Laboratories) 55 μl per well at a final concentration of 10 μg/ml in PBS. The plates were incubated 3 hours at room temperature. Excess IgG was removed and plates were blotted. Plates were blocked with 300 μL 2% BSA/PBS (BSA, Fraction V lyophilizate, Roche) and incubated for 2 hours at room temperature. The plates were washed 3 times with PBS and stimulating antibodies anti-TCR 0.01 ug/ml (BD Biosciences 347770 clone WT31) and anti-CD28 0.3 ug/ml (BD Pharmingen 555725) in 2% BSA/PBS final volume 50 μL/well. Plates were incubated overnight and washed 3 times with PBS prior to addition of cells for activation.
(§6) Puromycin selection of shDNA transduced Jurkat cells and normalization for cell survival: The LKO viral vector used in this study contains a puromycin selection marker. Jurkat cells infected with shDNA constructs (LKO.1) were put under puromycin selection 24 hrs post infection by addition of puromycin (2 μg/ml) and maintained for the duration of the experiment (6 days post infection, 3 days for mRNA quantitation). To account for differences in cell number after puromycin selection (possibly due to variations in viral titer), we adopted a cellular ATP assay which is proportional to cell number (Cell Titer-Glo Luminescent Assay Kit, Promega). The assay was performed as per the manufacturer's instruction. A standard curve was generated for each cell type to determine linearity for the assay. The IL-2 concentrations were normalized to cell number by dividing the calculated IL-2 concentration by the rLU values for the cell titer-glo assay, which is equivalent to IL-2 expression/cell number. The mRNA expression levels were determined 3 days post infection.
To assess whether cMAC was essential for T-cell activation, we designed several shDNA constructs targeting cMAC. In these experiments Jurkat T-cells were transduced with viral constructs targeting cMAC or another unrelated gene. 6 days post transduction, the cells were activated with TCR/CD28 antibodies and the level of cMAC mRNA and IL-2 secreted into the media was measured. […] FIG. 10.

cMAC mRNA = cMAC mRNA knockdown in shDNA transduced Jurkat cells; details: for Average cMAC mRNA % Inhib.: 3 days post infection (2 days post puromycin selection)
Description: as §6
Determination of mRNA knockdown for cMAC: Jurkat mRNA expression levels were determined 3 days post infection (2 days post puromycin selection).
To determine the specificity of the shDNA construct, the reduction of cMAC mRNA was measured for each construct (Table 8) and compared to the inhibition of IL-2 observed. The pGL3-Luc and CD29 shDNA constructs served as negative controls. […] In those instances it may be that the shDNA is causing decreases in the expression of cMAC protein through microRNA effects. Thus, it appears that with the exception of 2 constructs (BL6 and BL8) the phenotypically active IL-2 constructs correlate with reduced cMAC mRNA levels.

CD29 mRNA = CD29 mRNA knockdown by shDNA construct

Row | Molecule | Average IL-2 % inhibition (IL-2 [3]) [%] | Average cMAC mRNA % Inhib. (cMAC mRNA) [%] | also measured
1 | O=C(O)CN(CCOCCOCCN(CC(=O)O)CC(=O)O)CC(=O)O [EGTA] | – | – | effect on cMAC induced nuclear TORC1 translocation [1]: blocked
2 | CCCCCCCCCCCCCC(=O)O[C@@H]1[C@@H](C)[C@@]2(O)[C@@H](C=C(CO)C[C@]3(O)C(=O)C(C)=C[C@@H]23)[C@@H]2C(C)(C)[C@]12OC(C)=O [PMA, phorbol 12-myristate 13-acetate] | – | – | effect on NFAT-2 translocation (NFAT-2): no effect; effect on NFAT-1 translocation (NFAT-1): no effect; upregulation of IL-2 (IL-2 [2]): did not upregulate; upregulation of ICOS expression levels (ICOS): did not upregulate
3 | B1 | 40.8 | 66.4 | –
4 | B2 | 65.7 | 56.2 | –
5 | B3 | 52.1 | 30.1 | –
6 | B4 | – | – | reduction of CD29 mRNA (CD29 mRNA): potently reduced CD29 mRNA; effect on cMAC message (cMAC mRNA): no effect
7 | B5 | 72.2 | 67.0 | –
8 | B6 | 78.9 | 65.9 | –
9 | B7 | 37.8 | 54.8 | –
10 | B8 | 75.5 | 72.6 | –
11 | B9 | 8.03 | 70.1 | IL-2 reduction (IL-2 [3]): without any IL-2 reduction; Average cMAC mRNA % Inhib. (cMAC mRNA; listed as BL8): 70%
12 | B10 | −9.34 | 35.8 | IL-2 reduction (IL-2 [3]): without any IL-2 reduction; Average cMAC mRNA % Inhib. (cMAC mRNA; listed as BL6): 36%
